Measured values as given in US20170266254A1 (AILERON THERAPEUTICS, published 2017).
Bridges are numbered along the chain shown (N, C = ends). [ ]: non-standard residue; d: D form. S5 = C=CCCC[C@](C)(N)C(=O)O; Nle = CCCC[C@H](N)C(=O)O

T1: C-terminally 6x Histidine-tagged Beta-Catenin (aa 134-668, 59 KD) (UniProt P35222 134-668)
T1 construct: range 134-668; Armadillo repeat region
T1 sequence: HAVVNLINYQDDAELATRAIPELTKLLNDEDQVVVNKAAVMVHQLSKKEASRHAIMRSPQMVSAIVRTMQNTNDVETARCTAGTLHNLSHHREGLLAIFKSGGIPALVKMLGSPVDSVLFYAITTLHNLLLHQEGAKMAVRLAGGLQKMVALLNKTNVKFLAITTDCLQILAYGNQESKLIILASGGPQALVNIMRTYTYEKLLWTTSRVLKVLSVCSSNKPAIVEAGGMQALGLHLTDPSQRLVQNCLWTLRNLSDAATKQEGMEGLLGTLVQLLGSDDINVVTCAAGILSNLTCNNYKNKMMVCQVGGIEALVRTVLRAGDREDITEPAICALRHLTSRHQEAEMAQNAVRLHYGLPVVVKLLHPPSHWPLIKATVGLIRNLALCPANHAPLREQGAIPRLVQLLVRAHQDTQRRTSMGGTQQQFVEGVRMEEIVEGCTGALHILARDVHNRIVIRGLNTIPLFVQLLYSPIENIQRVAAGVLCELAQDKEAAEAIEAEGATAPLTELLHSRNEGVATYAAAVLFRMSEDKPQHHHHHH

B1: SP10 (peptide)
peptide: Ac-SAERDL[S5]DVK[S5]SLVNESEKR-NH2
modifications: staple 7-11
SMILES: CC(=O)N[C@@H](CO)C(=O)N[C@@H](C)C(=O)N[C@@H](CCC(=O)O)C(=O)N[C@@H](CCCNC(=N)N)C(=O)N[C@@H](CC(=O)O)C(=O)N[C@@H](CC(C)C)C(=O)N[C@@]1(C)CCCC=CCCC[C@@](C)(C(=O)N[C@@H](CO)C(=O)N[C@@H](CC(C)C)C(=O)N[C@H](C(=O)N[C@@H](CC(N)=O)C(=O)N[C@@H](CCC(=O)O)C(=O)N[C@@H](CO)C(=O)N[C@@H](CCC(=O)O)C(=O)N[C@@H](CCCCN)C(=O)N[C@@H](CCCNC(=N)N)C(N)=O)C(C)C)NC(=O)[C@H](CCCCN)NC(=O)[C@H](C(C)C)NC(=O)[C@H](CC(=O)O)NC1=O
B2: SP12 (peptide)
peptide: Ac-SAERDLADVK[S5]SLV[S5]ESEKR-NH2
modifications: staple 11-15
SMILES: CC(=O)N[C@@H](CO)C(=O)N[C@@H](C)C(=O)N[C@@H](CCC(=O)O)C(=O)N[C@@H](CCCNC(=N)N)C(=O)N[C@@H](CC(=O)O)C(=O)N[C@@H](CC(C)C)C(=O)N[C@@H](C)C(=O)N[C@@H](CC(=O)O)C(=O)N[C@H](C(=O)N[C@@H](CCCCN)C(=O)N[C@@]1(C)CCCC=CCCC[C@@](C)(C(=O)N[C@@H](CCC(=O)O)C(=O)N[C@@H](CO)C(=O)N[C@@H](CCC(=O)O)C(=O)N[C@@H](CCCCN)C(=O)N[C@@H](CCCNC(=N)N)C(N)=O)NC(=O)[C@H](C(C)C)NC(=O)[C@H](CC(C)C)NC(=O)[C@H](CO)NC1=O)C(C)C
B3: SP22 (peptide)
peptide: Ac-SA[S5]RDL[S5]DVKSSLVNESEKR-NH2
modifications: staple 3-7
SMILES: CC(=O)N[C@@H](CO)C(=O)N[C@@H](C)C(=O)N[C@@]1(C)CCCC=CCCC[C@@](C)(C(=O)N[C@@H](CC(=O)O)C(=O)N[C@H](C(=O)N[C@@H](CCCCN)C(=O)N[C@@H](CO)C(=O)N[C@@H](CO)C(=O)N[C@@H](CC(C)C)C(=O)N[C@H](C(=O)N[C@@H](CC(N)=O)C(=O)N[C@@H](CCC(=O)O)C(=O)N[C@@H](CO)C(=O)N[C@@H](CCC(=O)O)C(=O)N[C@@H](CCCCN)C(=O)N[C@@H](CCCNC(=N)N)C(N)=O)C(C)C)C(C)C)NC(=O)[C@H](CC(C)C)NC(=O)[C@H](CC(=O)O)NC(=O)[C@H](CCCNC(=N)N)NC1=O
B4: SP34 (peptide)
peptide: Ac-RDLANVK[S5]S[Nle]V[S5]ES-NH2
modifications: staple 8-12
SMILES: CCCC[C@@H]1NC(=O)[C@H](CO)NC(=O)[C@@](C)(NC(=O)[C@H](CCCCN)NC(=O)[C@@H](NC(=O)[C@H](CC(N)=O)NC(=O)[C@H](C)NC(=O)[C@H](CC(C)C)NC(=O)[C@H](CC(=O)O)NC(=O)[C@H](CCCNC(=N)N)NC(C)=O)C(C)C)CCCC=CCCC[C@@](C)(C(=O)N[C@@H](CCC(=O)O)C(=O)N[C@@H](CO)C(N)=O)NC(=O)[C@H](C(C)C)NC1=O
notes: also called Ac-RDLANVK$SNleV$ES-NH2
B5: SP2 (peptide)
peptide: Ac-RDLADVK[S5]SLV[S5]ES-NH2
modifications: staple 8-12
SMILES: CC(=O)N[C@@H](CCCNC(=N)N)C(=O)N[C@@H](CC(=O)O)C(=O)N[C@@H](CC(C)C)C(=O)N[C@@H](C)C(=O)N[C@@H](CC(=O)O)C(=O)N[C@H](C(=O)N[C@@H](CCCCN)C(=O)N[C@@]1(C)CCCC=CCCC[C@@](C)(C(=O)N[C@@H](CCC(=O)O)C(=O)N[C@@H](CO)C(N)=O)NC(=O)[C@H](C(C)C)NC(=O)[C@H](CC(C)C)NC(=O)[C@H](CO)NC1=O)C(C)C
notes: also called Ac-RDLADVK$SLV$ES-NH2
B6: SP35 (peptide)
peptide: Ac-RGLANVK[S5]SLV[S5]ES-NH2
modifications: staple 8-12
SMILES: CC(=O)N[C@@H](CCCNC(=N)N)C(=O)NCC(=O)N[C@@H](CC(C)C)C(=O)N[C@@H](C)C(=O)N[C@@H](CC(N)=O)C(=O)N[C@H](C(=O)N[C@@H](CCCCN)C(=O)N[C@@]1(C)CCCC=CCCC[C@@](C)(C(=O)N[C@@H](CCC(=O)O)C(=O)N[C@@H](CO)C(N)=O)NC(=O)[C@H](C(C)C)NC(=O)[C@H](CC(C)C)NC(=O)[C@H](CO)NC1=O)C(C)C
notes: also called Ac-RGLANVK$SLV$ES-NH2
B7: SP4 (peptide)
peptide: Ac-RNLADVK[S5]SLV[S5]ES-NH2
modifications: staple 8-12
SMILES: CC(=O)N[C@@H](CCCNC(=N)N)C(=O)N[C@@H](CC(N)=O)C(=O)N[C@@H](CC(C)C)C(=O)N[C@@H](C)C(=O)N[C@@H](CC(=O)O)C(=O)N[C@H](C(=O)N[C@@H](CCCCN)C(=O)N[C@@]1(C)CCCC=CCCC[C@@](C)(C(=O)N[C@@H](CCC(=O)O)C(=O)N[C@@H](CO)C(N)=O)NC(=O)[C@H](C(C)C)NC(=O)[C@H](CC(C)C)NC(=O)[C@H](CO)NC1=O)C(C)C
notes: also called Ac-RNLADVK$SLV$ES-NH2
B8: SP32 (peptide)
peptide: Ac-RDLANVI[S5]SLV[S5]ES-NH2
modifications: staple 8-12
SMILES: CC[C@H](C)[C@H](NC(=O)[C@@H](NC(=O)[C@H](CC(N)=O)NC(=O)[C@H](C)NC(=O)[C@H](CC(C)C)NC(=O)[C@H](CC(=O)O)NC(=O)[C@H](CCCNC(=N)N)NC(C)=O)C(C)C)C(=O)N[C@@]1(C)CCCC=CCCC[C@@](C)(C(=O)N[C@@H](CCC(=O)O)C(=O)N[C@@H](CO)C(N)=O)NC(=O)[C@H](C(C)C)NC(=O)[C@H](CC(C)C)NC(=O)[C@H](CO)NC1=O
notes: also called Ac-RDLANVI$SLV$ES-NH2
B9: SP33 (peptide)
peptide: Ac-RDLANVV[S5]SLV[S5]ES-NH2
modifications: staple 8-12
SMILES: CC(=O)N[C@@H](CCCNC(=N)N)C(=O)N[C@@H](CC(=O)O)C(=O)N[C@@H](CC(C)C)C(=O)N[C@@H](C)C(=O)N[C@@H](CC(N)=O)C(=O)N[C@H](C(=O)N[C@H](C(=O)N[C@@]1(C)CCCC=CCCC[C@@](C)(C(=O)N[C@@H](CCC(=O)O)C(=O)N[C@@H](CO)C(N)=O)NC(=O)[C@H](C(C)C)NC(=O)[C@H](CC(C)C)NC(=O)[C@H](CO)NC1=O)C(C)C)C(C)C
notes: also called Ac-RDLANVV$SLV$ES-NH2
B10: SP9 (peptide)
peptide: Ac-RDL[S5]NVK[S5]SLVNES-NH2
modifications: staple 4-8
SMILES: CC(=O)N[C@@H](CCCNC(=N)N)C(=O)N[C@@H](CC(=O)O)C(=O)N[C@@H](CC(C)C)C(=O)N[C@@]1(C)CCCC=CCCC[C@@](C)(C(=O)N[C@@H](CO)C(=O)N[C@@H](CC(C)C)C(=O)N[C@H](C(=O)N[C@@H](CC(N)=O)C(=O)N[C@@H](CCC(=O)O)C(=O)N[C@@H](CO)C(N)=O)C(C)C)NC(=O)[C@H](CCCCN)NC(=O)[C@H](C(C)C)NC(=O)[C@H](CC(N)=O)NC1=O
notes: also called Ac-RDL$NVK$SLVNES-NH2
B11: SP11 (peptide)
peptide: Ac-SAERDLA[S5]VKS[S5]LVNESEKR-NH2
modifications: staple 8-12
SMILES: CC(=O)N[C@@H](CO)C(=O)N[C@@H](C)C(=O)N[C@@H](CCC(=O)O)C(=O)N[C@@H](CCCNC(=N)N)C(=O)N[C@@H](CC(=O)O)C(=O)N[C@@H](CC(C)C)C(=O)N[C@@H](C)C(=O)N[C@@]1(C)CCCC=CCCC[C@@](C)(C(=O)N[C@@H](CC(C)C)C(=O)N[C@H](C(=O)N[C@@H](CC(N)=O)C(=O)N[C@@H](CCC(=O)O)C(=O)N[C@@H](CO)C(=O)N[C@@H](CCC(=O)O)C(=O)N[C@@H](CCCCN)C(=O)N[C@@H](CCCNC(=N)N)C(N)=O)C(C)C)NC(=O)[C@H](CO)NC(=O)[C@H](CCCCN)NC(=O)[C@H](C(C)C)NC1=O

What follows are binders tested against T1, C-terminally 6x Histidine-tagged … (assay: competitive fluorescence polarization, FAM-labelled linear probe as competitor, His-tagged beta-catenin 134-668).
Experimental: The following experiments are performed at room temperature unless otherwise noted. First, an assay buffer is prepared composed of 25 mM Tris-Hcl pH 7.5, 200 mM Sodium Chloride, and 5 mM CHAPS. Next, 1M DTT is added to assay buffer to a final concentration of 2 mM. […] Forty μl of this protein stock is added to all but six wells of a 96 well plate (which will serve as the free peptide and Blank). Test competitor peptides are diluted from 1 mM DMSO stocks to 2× working stocks in assay buffer. Further dilutions are made in assay buffer-DMSO as to maintain a constant DMSO concentration in all wells. The dilution is carried out such that the peptides have a working concentration range of 40 μM-0.7 μM (2×). As a benchmark, a linear, non-crosslinked peptide competitor is prepared as above but with a working concentration range of 13-0.7 μM. Fifty μl of the competitor 2× stocks are added to the 40 μl of protein solution previously transferred into the assay 96 well plate. Next, a 10× stock of the fluorescent probe is prepared. The probe is identical to the linear benchmark peptide except for the n-terminal conjugation of a FAM flourophore with Beta-Alanine spacer. A 1 mM DMSO stock of the probe is serially diluted to a final concentration of 25 nM (10×) and 10 μl of this stock is added to all wells except for those that will serve as the blank. The assay plate is stored in the dark and the reaction is allowed to run at room temperature for three hours. The reaction is then read on a Biotek Synergy 2 with the following settings: 100 ms delay, 40 measurements per well, with excitation filters of […], and emission filters of […]. Data is then analyzed in Graphpad Prism.
An IC50 of at least 100 µM was found for B1 in this work.
An IC50 of 85 µM was found for B2 in this work.
An IC50 of at least 100 µM was found for B3 in this work.
An IC50 of at least 100 µM was found for B4 in this work.
An IC50 of at least 100 µM was found for B5 in this work.
An IC50 of at least 100 µM was found for B6 in this work.
An IC50 of at least 100 µM was found for B7 in this work.
An IC50 of at least 100 µM was found for B8 in this work.
An IC50 of at least 100 µM was found for B9 in this work.
An IC50 of at least 100 µM was found for B10 in this work.
An IC50 of at least 100 µM was found for B11 in this work.
